The assay concerns the target PD-L1 on FEMX melanoma cells (UniProt Q9NZQ7). Kind of assay: cell-based or functional assay.
UniProt Q9NZQ7, sequence (Q9NZQ7 19-290 limits assumed): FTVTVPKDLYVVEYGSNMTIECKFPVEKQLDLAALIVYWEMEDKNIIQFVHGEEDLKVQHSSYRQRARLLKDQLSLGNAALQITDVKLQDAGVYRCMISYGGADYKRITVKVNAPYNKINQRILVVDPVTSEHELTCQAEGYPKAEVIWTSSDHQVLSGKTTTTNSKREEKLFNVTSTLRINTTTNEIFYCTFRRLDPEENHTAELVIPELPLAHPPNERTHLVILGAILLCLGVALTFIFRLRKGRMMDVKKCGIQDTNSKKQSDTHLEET

B1: blocking anti-PD-L1 antibody (Biolegend clone 29E.2A3) (antibody, from another filing, V domains shown)
VH: EVQLQQSGPELVKPGASVKMSCKASGYTFTSYVMHWVKQKPGQGLEWIGYVNPFNDGTKYNEMFKGKATLTSDKSSSTAYMELSSLTSEDSAVYYCARQAWGYPWGQGTLVTVSA
VL: DIVLTQSPASLAVSLGQRATISCRATESVEYYGTSLVQWYQQKPGQPPKLLIYAASSVDSGVPARFSGSGSGTDFSLTIHPVEEDDIAMYFCQQSRRVPYTFGGGTKLEIK
B1: the fraction of CD3+CD8+ TIL making IFN-gamma in a 12-hour intracellular cytokine release (ICS) assay, 1520 TIL co-cultured with FEMX tumor cells, antibody at 10 µg/mL was 37.3%.

The values are drawn from patent US20170175137A1.
